Test results: the nanobody polyreactivity screen of Harvey et al. (2022)

Experiment: yeast display, Sf9 membrane polyspecificity reagent, FACS + sequencing; frameworks hold sequencing errors
Method in brief: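 In a synthetic yeast display library (Saccharomyces cerevisiae BJ5465), nanobody expression was induced with galactose for 36–48 hours. FACS gates were set low and high (top ~1%) using anti-HA fluorescence for expression and streptavidin fluorescence for binding of the Sf9 membrane reagent. Each polyreactivity label is drawn from the gate of origin.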

Sequence	polyreactivity (PSR sort gate)
QVQLVESGGGLVQAGGSLRLSSAASGSTIRVYAMGWYRQAPGKERELVATISWGGGRTYYADSVKGRFTISLDNAKNTVYLQMNSLKQEDTSVYYCAADQRWTTDQPTAGDYWGQGTQVTVSS	low polyreactivity
QVQLVESGGGLVQAGGSLRLSCAASGRIFQKNTMGWYRQAPGKERELVAAINWNGGRTYYADSVKGRFTISRDNAKNTVYLQMNSLKPEDTAVYYCAKDGYWDFDYWGQGTQVTVSS	low polyreactivity
QVQLVESGGGLVQAGGSLRLSCAASGRIFSENAMGWYRQAPGKERELVAAITGNGGDTYYADSVKGRFTISRDNAKNTVYLQMNSLKPEDTAVYYCAAETGGLGGDYWGQGTQVTVSS	low polyreactivity
QVQRVESGGGLVQAGGSLRLSCAASGLIFRKYAMGWYRQEPGKERELVAAISLRGVSTYYADSVKGRFTISRDNAKNTVYLQMNRLKPEDTAVYYCAADVYYPLGYGLDYWGQGYQVTVSS	low polyreactivity
QVQLVESGVGLVQAGGSLRFSCAASAMGWSRQAPGKERELVAVINSTGGSTYYADSVKGRFTISRDNAKNTVYLQMNSLKPDATAVYYCARVTRRGPGYTTLYSRYDYWGQGTQVSVSS	low polyreactivity
QVQLVESGGGLVQAGGSLRFSCAASGSTFYGYVMGWYRQAPGKERELVAAISSSGGRTYYADSVKGRFTIARDYAKNTVYLQMNSLKPEDTAVYYCNTVQRYSTHYDYWGQGTQVTVSS	high polyreactivity
QVQLVESGGGLVQAGGSLRLSCAASGRTFWVYAMGWYRQAPGKERELVAAISRSGVSTYYADSVKGRFTISRDNAKNTVYLQMNSLKPEDTAVYYCAAPLIYTPLKYHYWGQGTQVTVSS	low polyreactivity
QVQLVDSGGGLVQAGGSLRLSCAASGSIFVSYTMGRYRQAPGKEREFVAAITKSGGSTYYADSVKGRFTISRDNAKNTVYLQMNSLKPEDTAVYYCAADWLHYVYEGYDYWGQGTQVTVSS	low polyreactivity
QVQLVESGGGLVQAGGSLRLSCAASGGIFFSYAMGWYRQAPGKERELVAAIRTNGGTTYYADSVKGRFTISRDNAKNTVYLQMNRLKPEDTAVYYCAALPGGYYDRGEYDYWGQGTQVTVSS	low polyreactivity
QVQLVESGGGLVQAGGSLRLSCAASGSILAYNAMGWYRKAPGKERELVAAIRLSGGSTYYADSVKGRFTISRDNAKNTVYLQMNSLKPEDTAVYYCARRYYRYDTRKYNYWGQGTQVTVSS	high polyreactivity
QVQLVESGGGLVQAGGSLRLSCAASGSIFWRNAMGWYRQAQGKEREFVATITWSGDSTYYADSVKGRFTISRDNAKNTVYLQMNSLKPEDTAVYYCATDWRNWGYDSWGQGTQVTVSS	low polyreactivity
QVQLVESGGGLVQAGGSLRLSCAASGFTFYTYAMGWYRQAPGKERELVAAITSSGGSTYYADSVKGRFTISRDHAKNTVYLQMNSLKPEDTAVYYCKAVSYYLGDDYWGPGTQVTVSS	high polyreactivity
QVQLVESGGGLVQAGGSLRLSCAASGSTSVPYAMGWYRQAPGKERELVAAITIGGSTNYADSVKGRFTISRDNAKNTVYLQMNSLKPEDTAVYYCNAVLTQYWKLVRYYGVDYWGQGTQVTVSS	low polyreactivity
QVQLVESGGGLVQAGGSLRLSCASSGSTFRYYAMGWYRPPPGKEREWVAVITSGGSTYYADSVKGRFTISRDNAKNTVSLQMNSLKPEDTAVDYCAAVYAFYVDFDYWGQGTQVTVSS	low polyreactivity
QVQIVESGGGLVQAGGSLRLSCAASGSIFFYYSMGWYRQAPGKERELVAAISVGGSTYYADSVKGRFTISRDNAKNTVYLQMNSLKPEDTAVYSFNAVPAKGYVTVVRYYYWGQGTQVTVSS	low polyreactivity
QVQLVESGGCLVQAGRSHRLSCAASGRIFYGYALGWYRQAPGKERELVAAITRSSSTYYADSVKGRFTISRDNAKNTVYLQMNSLKPEDTAVYYCNAYSWYGYDYWGQGTQVTVSS	high polyreactivity
QVQLVESGGGLVQAGGSLRFSCAASGRTLGYYTMGWYRQAPGKESELVATITPGGSTNYADSVKGRFTISRDHAKNTVYLQMNRLKPEDTAVYYCAKKKRRGYGYDYWGQGTQVTVSS	high polyreactivity
QVQLVESGGGLVQAGGSLRLSCAASGITFTKYAMGWYRQAPGNERELVAAITTTGGSTYYADSVKGRFTISRDKAKNTVYLQMTSLKPEETAVYYCATELGWGGFYKYGHASQFDYWGQGTQVTVSS	low polyreactivity
QVQLVESGGGLVKAGGSLRLICAASGFTFRAYAMGWYRQAPGTERELVAAINRRGGRTYYADSVKGRFTISRDNAKNTVYLQMNSLKPEDTAVYYCAAVKSGPSKGVGPPATAYDYWGQGTQVTVSS	high polyreactivity
QVQLVESGGGLVQAGGSLRLSCAASGRTCGKYAMGWYRQAPGKERELVATISRSGGSTYYADSVKGRFTISRDTAKYTVYLQMNSLKPEDTAVYYCNAVTSRYIWPPVLDRYHYWGQGTQVTLSS	high polyreactivity
QVQLVESGGGLVQAGGSLRLSCAASGSIFASYVMGWYRQAPGKERELVASITLSGGSTYYADSVKGRFTISRDNAKNTVYLQMNSLKPEDTAVYYCAKRGTLWLQEDYYWGQGTQVTVSS	low polyreactivity
QVQLVESGGGLVQAGGSLSLSCAASGSIFPGNAMGWYRQAPGKERELVAVIDFSGASTYYADSVKGRFTISRDNAKNTVYLQMNSLKPEDTADYWGQGTQVTVSS	low polyreactivity

Sequence	polyreactivity (PSR sort gate)
QVQLVESGGGLVQAGGSLRLSCAASGSTFWDYAMGWYRQAPGKERELVAAISTSGGSTYYADSVKGRFTISRDNAKNTVYLQMNSLKPEDTAVYYCAAGRVRRRVWYNYWGQGTQVTVSS	high polyreactivity
QVQLVESGGGLVQAGGSLRLSCAASGITFHRYAMGWYRQAPGKERELVAAISGSGGNTYYADSVKGRFTISRDNAKNTVYLQMNILKPEDTAVYYCAAYPSWYVYPKYYYWGQGTQVTVSS	high polyreactivity
QVQLVESGGGLVQARGSLRLSCAASGSTFSRNVMGWYRQATGKERELVAAISRGGSTNYADSVKGRFTISRDNAKNTVYLQMNSLKPEDTAVDYCAARSYGSTGPHGLKWVSYDYWGQGTQVTVSS	low polyreactivity
QVQLVESGGCLVQAGGSLRLSCAASGSTFTPYVMGWYRHAPGKERELVAAISKRGGSTYYADSVKGRFTISRDNAKNTVYLQMNRLKPEDTAVYYCAAVQPAWGNGYWGQGTQVTVSS	high polyreactivity
QVQLVESGGCLVQAGGSLRLSCAASGFIFSYYTMGWYRQAPGKERALVAAISYSGGSTYYADSVKGRFTISRDNAKKTVYLQMNSLKPEDTAVYYCAAETYGYYVIRYDYWGQGTQVTVSS	high polyreactivity
QVQLQESGGGLVQAGGSLRLSCAASGPISRRSNMGWYRQSPGKESELVTAITRGTNTNYADSVKGRFTISRDNAKYTEYLQMNSLNPEDTAVYYCADYGVLKPSRGDAVFNRYWGQGTQVTVSS	low polyreactivity
QVQLVESGGGLVQAGGSLRLSCAASGLTFASYAMGWYRQAPGKERELVAAISSSGRTYYADSVKGRFTISRDNAKNTVYLQMNSLKPEDTAVYYCATRGLSRYYDYYYWGQGTQVTVSS	high polyreactivity
QVQLVESGGGLVQAGGSLRLSCAASGFTLDSNALGWYRQAPGKERELVAAISWDDGSTYYADSVKGRFTISRDNAKNTVYLQMNSLKPEDTAVYYCAADASDVYGDRPWFHYYWGYDYWGQGTQVTVSS	low polyreactivity
QVQLVESGGGLVQAGGSLRLSCAPSGRIFGAYGMGWYRQAPGKERELVAAISNGGRTSYADSVKGRFTISRDNAKNTVYLQLNSVKPEDTAVYYCAAVYWPWFGAYDYWGHGTQVTVSS	high polyreactivity
QVQLVESGGGLVQAGGSLRLSCAASGSILGNYAMGWYRQAPGKEREVVAAISSSGRTSYADSVKGRFTISRDNAKNTVYLQMNSLKPEDTAVYYCNASNYIVLINDPDAAPWLYDYWGQGTQVTVSS	low polyreactivity
QVQLVESGGGLVQAGGSLRLSCAASGSTHVYAMGWYRQAPGKERELVAAISLNTGSTYYADSVKGRFTISRDNAKNTVYLQMNSLKPEDTAVYRLNYWGQGTQVTVSS	low polyreactivity
QVQLVESGGGLVQAGGSLRLSCAASGSNFHYNAMGWYRQAPGKERELVAAIRWGGGSTFYADSVKGRFTISRDNAKNTVYLQMNSLKPEDTAVYYCAADYWYETRDFTFFDLYVSYEYWGQGTQVTVSS	low polyreactivity
QVQLVESGGGLVQAGGSLRLSCAASGSTFAHYTMGWYRQAPGKERELVAAITRSGGSTYYADSVKGRFTISRDNAKNKVYLQMNSLKPEDTAVYYCAATRQWNILRYDYWGQCTQVTVSS	low polyreactivity
QVQIVESGGGLVQAGGSLRLRCAASGRIVKYAMGWYRHAPGKERELVAAINSGGSTKYADSVKGRFTISRDNAKITVYLQMICLKPEDTAVYYCAARILYHMDLGQGTQVTVSS	high polyreactivity
QVQLVESGGGLVQAGGSLRLSCAASGSIFDRNAMGWYRQAPGKERELVAAITSGGSTYYADSVKGRFTISRDNAKNTVYLQMNSLKPEDTAVYYCNADTDPPVPLYYWGQGTQVTVSS	low polyreactivity
QVQLVDSGGGLVQAGGSLLLSCAASGSTYKFYAMGWYRQAPGKERELVASITSSSGPTYYADSVKGRFTISRDNAKNTVYLQMKSLKPEDTAVYYCAKRPIRYYHLLRGNYWGQGTQVTVSS	low polyreactivity
QVQLVESGGGLVQAGGSLRLSCAASGSTSTLYAMGWYRQAPGKERELVAAISKSGGRTYYADSVKGRFTISRDNAKNTVYLQMNSLKPEDTAVYYCNTVPGRYRTFDYWGQGTQVTVSS	high polyreactivity
QVQLVESGGGLVQAGGSLRLSCAASGFIFRFNALGWYRQAPGKERELVAAISGSGGITYYADSVKGRFTISRDNAKNTVYLQMNSLKPEDTAVYYCAAGTGKRSVRFDYWGQGTQVTVSS	high polyreactivity
QVQLVESGGGLVQAGGSLRLSCAASGSYLRYYAMGWYRQAPGKERELVAAISRSGTNTYYADSVKGRFTISRDNAKNTVYLQMNSLKPEDTAVYYCAARSWKRRVGRDYWGQGTQVTVSS	high polyreactivity
QVQLVESGGGLVQAGGSLRLSCAASGRTFYGYAMGWYIQAPGKERELVASISYSGGNTYYADSVKGRFTISRDNAKNTVYLQMNSLKPEDTAVYYCAAKARRPYSYHPYDYWGLGTQVTVSS	high polyreactivity
QVQLVESGGGLVQAGGSLRLSCAASGSTFKDNAMGWYRLAPGKERELVARITYRGGRTYADSVKGRFTISRDNAKNTVFLQMNSLKPEDTAVYYCAARPSLYGHNSRYDYWGQGTQVTVSS	low polyreactivity
